This note sets out measurements from US20030077800A1 (HORMOS MEDICAL, published 2003).

Assay [1] has as its target rat androgen receptor expressed from pSG-rAR (rat) (UniProt P15207). Nature of the assay: cell-based or functional assay.
Assay [2] concerns the target T1, rat AR (amino acids 3-902) fused to the DBD of Gal4 (Gal4-AR) (rat, UniProt P04386 1-147; P15207 3-902).
T1 construct: domain: DBD;range 3-902; Mammalian two-hybrid bait in CV-1 cells; also called Gal-AR
Nature of the assay: mammalian two-hybrid in CV-1 cells, pG5LUC reporter.

For assay [3], the target named is T2, LexA-AR ZFR (AR amino acids 554-644) (human, UniProt P10275 554-644).
T2 sequence (looked up): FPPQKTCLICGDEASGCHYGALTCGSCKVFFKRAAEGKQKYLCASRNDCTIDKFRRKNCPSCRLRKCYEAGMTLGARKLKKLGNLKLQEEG
The experiment in a line: cell-based or functional assay.

In assay [4] the target is T3, LexA-HLBD (amino acids 624-919 of AR) (UniProt P10275 624-919).
T3 sequence (looked up): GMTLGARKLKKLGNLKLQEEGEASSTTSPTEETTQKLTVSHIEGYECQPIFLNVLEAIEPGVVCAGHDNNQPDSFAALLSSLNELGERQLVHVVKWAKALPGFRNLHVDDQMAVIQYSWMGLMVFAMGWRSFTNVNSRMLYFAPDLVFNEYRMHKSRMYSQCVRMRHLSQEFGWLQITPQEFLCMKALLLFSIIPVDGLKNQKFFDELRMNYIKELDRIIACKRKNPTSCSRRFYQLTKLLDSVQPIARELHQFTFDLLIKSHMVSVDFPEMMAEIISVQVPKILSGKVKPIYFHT
The experiment in a line: cell-based or functional assay.

rat androgen receptor expressed from pSG-rAR (rat), sequence (P15207 whole entry S389L, the tested form may be a part): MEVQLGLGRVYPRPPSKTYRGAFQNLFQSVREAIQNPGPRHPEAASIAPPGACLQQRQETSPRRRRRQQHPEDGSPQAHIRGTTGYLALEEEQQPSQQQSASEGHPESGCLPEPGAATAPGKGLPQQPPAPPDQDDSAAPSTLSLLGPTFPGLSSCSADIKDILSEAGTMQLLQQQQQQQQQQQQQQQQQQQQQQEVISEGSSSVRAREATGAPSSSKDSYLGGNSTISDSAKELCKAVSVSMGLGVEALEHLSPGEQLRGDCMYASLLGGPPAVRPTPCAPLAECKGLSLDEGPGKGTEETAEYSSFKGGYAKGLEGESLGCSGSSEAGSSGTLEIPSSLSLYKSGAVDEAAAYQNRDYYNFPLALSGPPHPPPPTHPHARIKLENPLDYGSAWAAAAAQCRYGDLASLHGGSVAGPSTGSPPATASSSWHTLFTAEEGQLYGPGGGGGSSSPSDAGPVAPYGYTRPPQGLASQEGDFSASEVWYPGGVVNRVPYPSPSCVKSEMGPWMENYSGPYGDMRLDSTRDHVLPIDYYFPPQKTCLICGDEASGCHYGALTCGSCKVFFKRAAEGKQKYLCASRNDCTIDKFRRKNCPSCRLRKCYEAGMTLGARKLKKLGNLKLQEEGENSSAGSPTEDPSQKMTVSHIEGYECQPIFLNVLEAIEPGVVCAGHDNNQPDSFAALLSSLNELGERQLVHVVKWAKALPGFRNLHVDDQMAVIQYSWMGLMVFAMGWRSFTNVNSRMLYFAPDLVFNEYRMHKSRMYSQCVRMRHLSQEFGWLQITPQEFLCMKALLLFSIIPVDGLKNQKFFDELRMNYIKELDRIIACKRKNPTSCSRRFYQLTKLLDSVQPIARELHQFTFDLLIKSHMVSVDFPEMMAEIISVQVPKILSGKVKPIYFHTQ

In assay [1], “FLAG-tagged ARIP4 (pFLAG-ARIP4) (from UniProt Q99NG0 1-1467)” returned an AR activity on the probasin promoter (pPB(-285/+32)-LUC, COS-1 cells) (% of that of AR alone) of 50 to 60 and a transcriptional activity of AR on a minimal promoter (ARE4-tk-LUC, COS-1 cells) of 3 fold.

B1: VP16-ODC fusion protein (human ornithine decarboxylase fused to VP16 AD) (other)
chain: MNNFGNEEFDCHFLDEGFTAKDILDQKINEVSSSDDKDAFYVADLGDILKKHLRWLKALPRVTPFYAVKCNDSKAIVKTLAATGTGFDCASKTEIQLVQSLGVPPERIIYANPCKQVSQIKYAANNGVQMMTFDSEVELMKVARAHPKAKLVLRIATDDSKAVCRLSVKFGATLRTSRLLLERAKELNIDVVGVSFHVGSGCTDPETFVQAISDARCVFDMGAEVGFSMYLLDIGGGFPGSEDVKLKFEEITGVINPALDKYFPSDSGVRIIAEPGRYYVASAFTLAVNIIAKKIVLKEQTGSDDEDESSEQTFMYYVNDGVYGSFNCILYDHAHVKPLLQKRPKPDEKYYSSSIWGPTCDGLDRIVERCDLPEMHVGDWMLFENMGAYTVAAASTFNGFQRPTIYYVMSGPAWQLMQQFQNPDFPPEVEEQDASTLPVSCAWESGMKRHRAACASASINV
notes: Negative control in the mammalian two-hybrid assay; also called human ODC
Turning to B1, the binding result in assay [2] is reported as “no binding”.

B2: VP16 AD fused to ARIP4 (amino acids 86-227) (VP16 AD-ARIP4 ID) (other)
chain: RHQGKILASEDPKKKRAQKPSHMRRNIRKLLREDQLEPVTKAAQQEELERRKRLEQQRKEYAAPIPTVPLEFLPEEIVLRASDGPQLPPRVLAQEVICLDSSSGSEDEKSSRDEVIELSSGEEDTLHIVDSSESVSEEDEEE
For the molecule B2, the “reporter gene activity (beta-galactosidase, yeast two-hybrid)” value in assay [3] was about 100 fold. In assay [4], the “reporter gene activity (beta-galactosidase, yeast two-hybrid, with androgen)” value was found to be 4 fold.
